Test results taken from the nanobody polyreactivity screen of Harvey et al. (2022).

experiment: yeast display, Sf9 membrane polyspecificity reagent, FACS + sequencing; frameworks hold sequencing errors
How it was run: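 Galactose induction of a Saccharomyces cerevisiae BJ5465 synthetic nanobody display library ran 36–48 hours. The cells were then stained for 1 hour at 4 °C with 10% biotinylated, detergent-solubilized Sf9 membrane reagent, pulled down on streptavidin microbeads and FACS-sorted into low and high (top ~1%) gates on expression and reagent-binding fluorescence. Labels for polyreactivity follow the gate of origin.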

Sequence	polyreactivity (PSR sort gate)
QVHLVESGGGLVQAGGSLRLSCAASGRIFSVYAMGWYRQAPGKERELVAVITTSGGSTYYADSVKGRFTISRGNAKNTVYLQMNSLKPEDTAVYYCNAEPWSYAIGSYEYWGQGTQVTVSS	high polyreactivity
QVHLVESGGGLVQAGGSLRLSCAASGRIFTYYAMGWYRQAPGKEREFVAAIRRSGGSTDYADSVKGRFTISRDNAKNTVYLQMNSLKPEDTAVYYCAAESPTYPGGEYWGQGTQVTVSS	high polyreactivity
QVHLVESGGGLVQAGGSLRLSCAASGRIFWLYAMGWYRQAPGKERELVAAISSGGSTSYADSVKGRFTISRDNAKNTVYLQMNSLKPEDTAVYYCNATLLFPLLYGPESGEFDYWGQGTQVTVSS	low polyreactivity
QVHLVESGGGLVQAGGSLRLSCAASGRLSQNAMGGYRQAPGKERELVAAITFSGGSTYYADSVKGRFTISRDNAKNTVYLQMNSLKPEDTAVYYCAADDRPLYWRFPDEMDYWGQGTQVTVSS	low polyreactivity
QVHLVESGGGLVQAGGSLRLSCAASGRNFAYNAMGWYRQAPGKETELVASFTSGGSTNYADSVKGRFTISRDNANNTVYLQMNSLKPEDSAVYYCNKDGKYHRVLYDYWGQGTQVTVSS	low polyreactivity
QVHLVESGGGLVQAGGSLRLSCAASGRNFYANAMGWYRQAPGKERELVAAISSGGSTYYADSVKGRFTISRDNAKNTVYLQMKSLKPEDTAVYYCAVYTHKKVRPEYDYWGQGTQVTVSS	low polyreactivity
QVHLVESGGGLVQAGGSLRLSCAASGRTCRINAMGWYRQAPGKERELVAAITSGGRTNYADSVKGRFTISRDNAKNTVYLQMNSLKPEDTAVYYCAADTTHWYYLGYGYWGQGNQVTVSS	low polyreactivity
QVHLVESGGGLVQAGGSLRLSCAASGRTFATYALGWYRQAPGKERELVAAISSGGSTYYADSVKGRFTISRDNAKNTVYLQMNSLKPEDTAVYYCAAARKYYGYNYWGQGTQVTVSS	high polyreactivity
QVHLVESGGGLVQAGGSLRLSCAASGRTFDINAMGWYRQAPGKERELVAAISSRGGTTFYADSVKGRFTISRDHAKNTVYLQMNSLKPEDTAVYYCAAEYSSYYTRGGSYNYWGQGTQVTVSS	low polyreactivity
QVHLVESGGGLVQAGGSLRLSCAASGRTFDLNVMGWYRQAPGKERELVAAISFSGGSTYYADSVKGRFTISRDNAKNTVYLQMNSLKPEDTAVYYCSADEYSADSVPSWYDYWGQGTQVTVSS	high polyreactivity
QVHLVESGGGLVQAGGSLRLSCAASGRTFGINAMGWNRQAPGKERELVAVISFGDGGTYYADSVKGRFTISRDNAKNTVYLQMNSLKPEDTAVYYCATDYQSTSVWGGHFVINPYDYWGQGTQVTVSS	low polyreactivity
QVHLVESGGGLVQAGGSLRLSCAASGRTFGWNVMGWYRQAPGKERELVAAISGSGGSTYYADSVKVRFTISRDNAKNTVYLQMNSLKPEDTAVYYCAALYGPGREYDYWGQGTQVTVSS	low polyreactivity
QVHLVESGGGLVQAGGSLRLSCAASGRTFKGYAMGWYRQAPGKERELVASINWSDGNTYYADSVKGRFTISRDNAKNTVYLQMNSLKPEDTAVYYCNVRRGDRFVRHDYWGQGTQVTVSS	low polyreactivity
QVHLVESGGGLVQAGGSLRLSCAASGRTFKYNTMGWYRQAPGKERELVAVISRSGGRTYYADSVKGRFTISRDNAKNTVYFQMNSLKPEDTAVYYCAKGIPYSDPQSAYDDYWGQGTQVTVSS	high polyreactivity
QVHLVESGGGLVQAGGSLRLSCAASGRTFPYTAMGSYRQAPGKERELVAAISSGGSTNYADSVKGRFTISRDNAKNTVYLQMNSLKPEDTAVYYCATKYQRRPYRYYYWGQGTQVSVSS	low polyreactivity
QVHLVESGGGLVQAGGSLRLSCAASGRTFRSYAMGWYRQAPGKERELVAAISWSGGSTYYADSVKGRFTISRDNAKNTVYLQMNSLKPEDTAVYYCAASYFYFPYTSDEGYWGQGTQVTVSS	high polyreactivity
QVHLVESGGGLVQAGGSLRLSCAASGRTFYSYTMAWYRQAPGKERELVAAINRGGSTYYADSVKGRFTISRDKAKNTVYLQMNSLKEEDTAVYYFAVGYAHSSNRRYYYQKTHGYWGQGTQVTVSS	low polyreactivity
QVHLVESGGGLVQAGGSLRLSCAASGRTIKRYAMGWYRQAPGKERELVATISRSGSSTYYADSVKGRFTISRANAMNTVYLQMNSLKPEDTAVYYCNAYVPDIWVNGYDSWGQGTQVTVSS	high polyreactivity
QVHLVESGGGLVQAGGSLRLSCAASGRTYDYYAMGWYRQAHGKERELVAAIRLISGNTYYADSVKGRFTISRDNAKNTVYLQMNSLKPEDTAVYYCARQGYVLYYYWGQGTQVTVSS	low polyreactivity
QVHLVESGGGLVQAGGSLRLSCAASGSICNPYAMGWYRQAPGKEGELVAAINRGGTSTYYADSVKGRFTISRDNAKNNVYLQMNSLKPEDTAVYYCNADYPYYEDGDTVRDDYWGQGTQVTVSS	low polyreactivity
QVHLVESGGGLVQAGGSLRLSCAASGSIFGGYAMGWSRQAPGKERELVAAISYRGASTYYADSVKGRFTISRDNAKNTVYLQMNSLKPEDTAVYYCNADDRGSTYVDFDYWGQGTQVTVSS	low polyreactivity
QVHLVESGGGLVQAGGSLRLSCAASGSIFGNNAMGWYRQAPGKERELVAAISSGGSTNYADSVKGRFTISRDNAKNTVYLQMNSLKPEDTAFYYCAKHSWSRAFSWATRLHWRYDYWGQGTQVTVSS	low polyreactivity

Sequence	polyreactivity (PSR sort gate)
QVHLVESGGGLVQAGGSLRLSCAASGSIFGPYVMGWYRQAPGKEREFVAAIRGSGGSTYYADTVKGRFTISRDNAKNTVYLQMTSLKPEDTAVYYCNASLKYTLYYYWGQGTQVTVSS	high polyreactivity
QVHLVESGGGLVQAGGSLRLSCAASGSIFGYNTMGWYRQAPGKERELVAAISYSSGSTHYADSVKGRFTISRVNAKNTVYLQMNSLKPEDTAVYYSTSVRRWSFGYWGQGTQVTVSS	low polyreactivity
QVHLVESGGGLVQAGGSLRLSCAASGSIFPRNAMGWYRQAPGKERELVAAISSGGGRTYYADSVKGRFTISRDNAKNTVYLQMNSLKPVDTAVYYCAREVWGYRWLYPVYILDYWGQGTQVTVSS	high polyreactivity
QVHLVESGGGLVQAGGSLRLSCAASGSIFQPYAIRWYRQAPGKERELVAAISSSGGSTTYADSVKGRFTISRDNAKNTVYLQMTSLKPEDTAVYYCAADSADDMGYWGQGTQVTVSS	low polyreactivity
QVHLVESGGGLVQAGGSLRLSCAASGSIFSLYAMGWYRQAPGKERELVAAITRSGAGTYYADSVKGRFTISRDNAKNTVYLQLNSLKPEDTAVYYCANRTKTPTGYVWGGYDYWGQGTQVTVSS	high polyreactivity
QVHLVESGGGLVQAGGSLRLSCAASGSIFSSNTMGWYRQATGKERELVAAISWSGGRTRYADSVKGRFTISRDNAKNTVYLQMNSLKPEDNAVYYCNAGTVASTLYDVRTHFDYWGQGTQVTVSS	low polyreactivity
QVHLVESGGGLVQAGGSLRLSCAASGSIFSVYTMGWYRQATGKEREFVPSIDWSAGSTNYADSVKGRFTISRDNAKNTVYFQRNSLKPEDTADDYCARAGSSWDTLYKYYLEHDYWGQGSQVTVSS	low polyreactivity
QVHLVESGGGLVQAGGSLRLSCAASGSIFSYYAMGWYRQAPGKERELVAAISQSGGSTYYADSVKGRFTISRDNAKNTVYLQMNSLKPEDTAVNYCNAGRGTFKRYTALQYWGQGTQVTVSS	low polyreactivity
QVHLVESGGGLVQAGGSLRLSCAASGSIFSYYGMGWYRQAPGKERELVAAITRSTGSTYYADSVKGRFTISRDYAKNTVYLQMNSLKPEDTAVYYCATEYVVLWEFDYWGQGTQVTVSS	low polyreactivity
QVHLVESGGGLVQAGGSLRLSCAASGSIFTYYAMGWYRQAPGKERELVAAISSDGSTTYADSVKGRFTISRDNAKNTVYLQMNSLKPEDTAVYYCAASSYNGHGYWGQGTQVTVSS	low polyreactivity
QVHLVESGGGLVQAGGSLRLSCAASGSIFVHNAMGWYRQAPGKESELVAGISARGASTYYADSVKGRFTISRDNAKNTVYLQMKSLKPEDTAVYYCAADRIPGYRVYGFYYWGQGTQVTVSS	low polyreactivity
QVHLVESGGGLVQAGGSLRLSCAASGSIFVPYAMGWYRKAPGKERELVAAITYSDGCTYYADSVKGRFTMSRDNAKNTVYLQMNSLKPEDTAVYYCATYPQYYFRYDYWGQGTQVTVSS	high polyreactivity
QVHLVESGGGLVQAGGSLRLSCAASGSIFYIYAMGWYRQAPGKERELVAGITSGGGTYYADSVKGRFTISRDNAKNTVYLQMNSLKPEDTAVYYCAADYLYDYDYWGQGTQVTVSS	high polyreactivity
QVHLVESGGGLVQAGGSLRLSCAASGSIFYWYAMGWYRQAPGKERELVAAITWSGGSTYYADSVKGRFTISRDNAKNTVDLQMNSLKPEDTAVYYCAALVYGYPRWSGKYDYWGQVTQVTVSS	high polyreactivity
QVHLVESGGGLVQAGGSLRLSCAASGSIIIRNAMGWYRQAPGKERELVATITRSGSTYYADSVKGRFTISRDNAKNTVYLQMNSLKPEDTAVYYFAADWPNLVEYYYWGQGTQVTVSS	high polyreactivity
QVHLVESGGGLVQAGGSLRLSCAASGSILSINGRGWSRQAPGKERELVATIDGSDGSTFYADSVKGRFTISRDNAKNTVYLQMNSLKPEDTAVYYCAAENFWQTKEYDYWGQGTQVTVSS	low polyreactivity
QVHLVESGGGLVQAGGSLRLSCAASGSNFYPYAMGWYRQEPGKERELVAAIRWRGDRTYYADSVKGRFTISRDNAKKTVYLQMNSLKPEDTGVYYCAADLSGWSTHGSWGQATQVTVSS	high polyreactivity
QVHLVESGGGLVQAGGSLRLSCAASGSTFALYGMGWYRQAPGKERELVAASTWSGTGTYYADSVKGRFTISRDNAKNTVYLQMNSLKPEDTAVYYCAADGYTTYYSEFYYWGQATQVTVSS	low polyreactivity
QVHLVESGGGLVQAGGSLRLSCAASGSTFGYYTMGWYRQAPGKERELVAAISGSGDSTYYADSVKGRFTISRDNAKNTVYLQMNSLKPEDTAVYYCAKRYYKRYNYWGQGTQVTVSS	high polyreactivity
QVHLVESGGGLVQAGGSLRLSCAASGSTFKIYAMGWYRQAPGKERELVAAITRGGSTNYADSVKGRFTISRDNAKNTVYLQMNSLKPEDTAVYYCAASYWYRRYGTYTYDYWGQGTQVTVSS	high polyreactivity
QVHLVESGGGLVQAGGSLRLSCAASGSTFQRYAMGWDRQAPGKERELDAAITIRGTRTYYADSVKGRFTISRDNAKNTVYLQMNSLKPEDTAVYYCAATYYWYGHPSRRYDYWGQGTQVTVSS	high polyreactivity
